A short description of the data set: protein stability index of a GFP-peptide fusion (GPS, HEK-293T) (PSI 1-6); higher = more stable.
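Further: lentivirally expressed fusions sorted by FACS into six bins by GFP to DsRed ratio, PSI derived from sequencing read proportions per bin multiplied by bin number.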

B1: FEM1A WT (peptide)
chain: PCCSSSPEEPLNGESYESCCPTSR
Turning to B1, the protein stability index (parent: IOH5115_46, c terminus: a fixed tail appended) came out at 3.71.

B2: CIB1 WT (peptide)
chain: DLSRLVNCLTGEGEDTRLSASEMK
For B2, under “parent: IOH3143_22, c terminus: a fixed tail appended”, the protein stability index is 3.05.

B3: ELF3 WT (peptide)
chain: LSKEYWDCLEGKKSKHAPRGTHLW
Turning to B3, the protein stability index (parent: IOH4879_43, c terminus: a fixed tail appended) was 2.74.

B4: SEC22B WT (peptide)
chain: AKQLFRKLNEQSPTRCTLEAGAMT
On to B4, for which the protein stability index (parent: IOH3957_7, c terminus: a fixed tail appended) was 2.07.

B5: TSN WT (peptide)
chain: FVELQGFLAAEQDIREEIRKVVQS
B5: the protein stability index (parent: IOH3571_2, c terminus: a fixed tail appended) was found to be 2.08.

B6: TMEM106C WT (peptide)
chain: TVPEILVHNIVIFMRTSVKISYIG
As for B6, the protein stability index (parent: IOH3247_35, c terminus: a fixed tail appended) stood at 3.44.

B7: CCND1 WT (peptide)
chain: IRRAYPDANLLNDRVLRAMLKAEE
For the protein B7, the protein stability index (parent: IOH1962_3, c terminus: a fixed tail appended) was determined as 2.62.

B8: MCOLN1 WT (peptide)
chain: EEEDLRRRLKYFFMSPCDKFRAKG
On to B8, for which the protein stability index (parent: IOH4733_7, c terminus: a fixed tail appended) worked out at 2.28.

B9: CDKN1A WT (peptide)
chain: GRKRRQTSMTDFYHSKRRLIFSKR
As to B9, the protein stability index (parent: IOH5068_24, c terminus: a fixed tail appended) is 3.14.

B10: ELF3 WT (peptide)
chain: RLVYKFGKNSSGWKEEEVLQSRN
As to B10, the protein stability index (parent: IOH4879_62, c terminus: native) amounted to 2.04.

B11: SEC22B WT (peptide)
chain: FPKKLAFAYLEDLHSEFDEQHGKK
Consider B11, for which the protein stability index (parent: IOH3957_14, c terminus: a fixed tail appended) stood at 2.61.

B12: FAM50A WT (peptide)
chain: KALEILRKDFSELRSAGVEQLMYI
For the protein B12, the protein stability index (parent: IOH4655_39, c terminus: a fixed tail appended) was found to be 2.56.

B13: CDKN1A WT (peptide)
chain: RRQTSMTDFYHSKRRLIFSKRKP
As for B13, the protein stability index (parent: IOH5068_25, c terminus: native) was 2.54.

B14: MNAT1 WT (peptide)
chain: LEEALYEYQPLQIETYGPHVPELE
Take B14: the protein stability index (parent: IOH3100_41, c terminus: a fixed tail appended) was determined as 2.7.

B15: ZNF207 WT (peptide)
chain: YQGGPPRPPMGMRPPVMSQGGRY
With B15, the protein stability index (parent: IOH3584_75, c terminus: native) turned out to be 1.94.

B16: UFD1L WT (peptide)
chain: EAGGRFVAFSGEGQSLRKKGRKP
Take B16: the protein stability index (parent: IOH4744_50, c terminus: native) stood at 1.91.

B17: CLK3 WT (peptide)
chain: FGEDYYGPSRSRHRRRSRERGPYR
In the case of B17, the protein stability index (parent: IOH4008_14, c terminus: a fixed tail appended) was 2.64.

B18: TPD52L2 WT (peptide)
chain: EAEEEELRAELTKVEEEIVTLRQV
As for B18, where the note is “parent: IOH3163_8, c terminus: a fixed tail appended”, the protein stability index was found to be 4.06.

B19: ZNF207 WT (peptide)
chain: CHICHKKLYTGPGLAIHCMQVHKE
On to B19, for which, for the setting “parent: IOH3584_7, c terminus: a fixed tail appended”, the protein stability index amounted to 3.29.

B20: VTI1B WT (peptide)
chain: NKLLLSIIILLELAILGGLVYYKF
On to B20, for which, where the note is “parent: IOH5143_35, c terminus: a fixed tail appended”, the protein stability index is 2.46.

B21: CCND1 WT (peptide)
chain: PEAEENKQIIRKHAQTFVALCATD
For the protein B21, for the setting “parent: IOH1962_29, c terminus: a fixed tail appended”, the protein stability index amounted to 2.89.

B22: FLOT1 WT (peptide)
chain: QMAKKAEAFQLYQEAAQLDMLLEK
Consider B22, for which, under “parent: IOH4826_57, c terminus: a fixed tail appended”, the protein stability index worked out at 1.75.

B23: FAM164A WT (peptide)
chain: YDPDYIQCPYCQRRFNENAADRHI
For B23, under “parent: IOH3371_20, c terminus: a fixed tail appended”, the protein stability index is 4.12.

B24: KRT18 WT (peptide)
chain: PQVRDWSHYFKIIEDLRAQIFANT
Consider B24, for which the protein stability index (parent: IOH2946_21, c terminus: a fixed tail appended) amounted to 2.07.

B25: TMEM106C WT (peptide)
chain: FTGRDSITCLTCQGTGYIPTEQVN
For the protein B25, for the setting “parent: IOH3247_8, c terminus: a fixed tail appended”, the protein stability index is 1.83.

B26: FEM1A WT (peptide)
chain: NIVEYLIQEQPGQEQVAGGEAQPG
Turning to B26, the protein stability index (parent: IOH5115_39, c terminus: a fixed tail appended) was 4.27.

B27: PHTF1 WT (peptide)
chain: RVKLISNKGTETDNDPSCVHPIIK
B27: for the setting “parent: IOH4271_36, c terminus: a fixed tail appended”, the protein stability index worked out at 4.06.

B28: MNAT1 WT (peptide)
chain: LAPIHKLEEALYEYQPLQIETYGP
In the case of B28, under “parent: IOH3100_40, c terminus: a fixed tail appended”, the protein stability index amounted to 1.96.

B29: PI4K2A WT (peptide)
chain: FVKDPQGRIIAVFKPKNEEPYGHL
For the protein B29, the protein stability index (parent: IOH5080_24, c terminus: a fixed tail appended) amounted to 1.76.

B30: TSN WT (peptide)
chain: FLAAEQDIREEIRKVVQSLEQTAR
As for B30, the protein stability index (parent: IOH3571_3, c terminus: a fixed tail appended) worked out at 1.8.

B31: KRT18 WT (peptide)
chain: KSQDLAKIMADIRAQYDELARKNR
Regarding B31, where the note is “parent: IOH2946_41, c terminus: a fixed tail appended”, the protein stability index is 2.6.

B32: KRT18 WT (peptide)
chain: RVRSLETENRRLESKIREHLEKKG
On to B32, for which the protein stability index (parent: IOH2946_17, c terminus: a fixed tail appended) is 4.39.

B33: VTI1B WT (peptide)
chain: ANETLAEMEEELRYAPLSFRNPMM
With B33, the protein stability index (parent: IOH5143_10, c terminus: a fixed tail appended) amounted to 1.94.

B34: NCK2 WT (peptide)
chain: YVERKNSLKKGSLVKNLKDTLGLG
Turning to B34, the protein stability index (parent: IOH4659_10, c terminus: a fixed tail appended) is 2.21.

B35: MLH1 WT (peptide)
chain: YNIATRRKALKNPSEEYGKILEVV
B35: the protein stability index (parent: IOH3190_27, c terminus: a fixed tail appended) stood at 2.51.

B36: ZNF24 WT (peptide)
chain: YGETCFPKGRFERKRNPSRKKQHI
With B36, the protein stability index (parent: IOH4871_39, c terminus: a fixed tail appended) came to 2.65.

B37: KRT18 WT (peptide)
chain: RAQYDELARKNREELDKYWSQQIE
In the case of B37, the protein stability index (parent: IOH2946_43, c terminus: a fixed tail appended) worked out at 3.04.

B38: RAB40B WT (peptide)
chain: YSLTTSSTHKRSSLRKVKLVRPPQ
Regarding B38, the protein stability index (parent: IOH1937_41, c terminus: a fixed tail appended) worked out at 2.95.

B39: MNAT1 WT (peptide)
chain: SLREYNDFLEEVEEIVFNLTNNVD
As to B39, the protein stability index (parent: IOH3100_16, c terminus: a fixed tail appended) was 2.

B40: NCK2 WT (peptide)
chain: YTGPSSSGRFAGREWYYGNVTRHQ
B40: the protein stability index (parent: IOH4659_46, c terminus: a fixed tail appended) was 1.78.

B41: PDLIM7 WT (peptide)
chain: AAGGVPGGGSNNGKTPVCHQCHKV
Turning to B41, the protein stability index (parent: IOH4706_45, c terminus: a fixed tail appended) was found to be 2.61.

B42: FAM50A WT (peptide)
chain: KKREKQREQMEQMKQRIAEENIMK
For B42, for the setting “parent: IOH4655_4, c terminus: a fixed tail appended”, the protein stability index came out at 4.67.

B43: CDC34 WT (peptide)
chain: GGYFKARLKFPIDYPYSPPAFRFL
Regarding B43, the protein stability index (parent: IOH1870_10, c terminus: a fixed tail appended) amounted to 2.41.

B44: EMD WT (peptide)
chain: YQSKGYNDDYYEESYFTTRTYGEP
With B44, the protein stability index (parent: IOH4676_15, c terminus: a fixed tail appended) is 2.23.

B45: ZNF24 WT (peptide)
chain: THTKEQILELVVLEQFVAILPKEL
Regarding B45, the protein stability index (parent: IOH4871_15, c terminus: a fixed tail appended) turned out to be 2.8.

B46: FAM50A WT (peptide)
chain: HIFPASRWEPYDPEKKWDKYTIR
For the protein B46, where the note is “parent: IOH4655_56, c terminus: native”, the protein stability index turned out to be 2.29.

B47: PHTF1 WT (peptide)
chain: SRHLNSQVKKTTTRWCHIVRDSDS
With B47, where the note is “parent: IOH4271_53, c terminus: a fixed tail appended”, the protein stability index is 2.05.

B48: TMEM106C WT (peptide)
chain: YVTTNVSLIPPRSEQLVNFTGKAE
Consider B48, for which, for the setting “parent: IOH3247_29, c terminus: a fixed tail appended”, the protein stability index turned out to be 1.77.

B49: TSN WT (peptide)
chain: AFVVYLETETLVTREAVTEILGIE
Regarding B49, the protein stability index (parent: IOH3571_18, c terminus: a fixed tail appended) was 2.25.

B50: TMEM106C WT (peptide)
chain: SEQLVNFTGKAEMGGPFSYVYFFC
As to B50, the protein stability index (parent: IOH3247_31, c terminus: a fixed tail appended) is 2.53.

B51: ZNF207 WT (peptide)
chain: FQPQPVQPQQGYIPPMAQPGLPPV
In the case of B51, where the note is “parent: IOH3584_22, c terminus: a fixed tail appended”, the protein stability index turned out to be 3.18.

B52: CASP6 WT (peptide)
chain: TCADRDNLTRRFSDLGFEVKCFND
On to B52, for which, for the setting “parent: IOH3453_12, c terminus: a fixed tail appended”, the protein stability index turned out to be 3.21.

B53: ZNF207 WT (peptide)
chain: FPSAGQAQAAVQGPVGTDFKPLNS
On to B53, for which the protein stability index (parent: IOH3584_46, c terminus: a fixed tail appended) amounted to 3.51.

For the origin of these results see the supplement of paper PMC10567573.
